Measured values from paper PMC11696179, “Molecular condensation of the CO/NF-YB/NF-YC/FT complex gates floral transition in Arabidopsis” (The EMBO Journal, 2024).

T1: NF-YC9-GFP, recombinant (Arabidopsis thaliana, UniProt Q8L4B2 1-231)
T1 chain: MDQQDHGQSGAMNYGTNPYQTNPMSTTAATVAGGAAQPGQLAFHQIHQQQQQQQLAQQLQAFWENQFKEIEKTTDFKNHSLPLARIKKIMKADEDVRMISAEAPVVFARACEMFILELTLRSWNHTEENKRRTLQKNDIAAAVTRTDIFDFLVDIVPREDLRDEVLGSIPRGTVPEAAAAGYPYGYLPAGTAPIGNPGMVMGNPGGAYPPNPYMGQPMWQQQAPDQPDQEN

T2: mCherry-CO (CONSTANS), recombinant (Arabidopsis thaliana, UniProt Q39057 1-373)
T2 construct: CONSTANS (CO), Arabidopsis thaliana; No tag cleavage step is described; also called SUMO-mCherry-CO; source: E. coli Rosetta pLysS, purified (HisTrap; size exclusion when necessary); not shown: mCherry, N-terminal, kept
T2 sequence (looked up): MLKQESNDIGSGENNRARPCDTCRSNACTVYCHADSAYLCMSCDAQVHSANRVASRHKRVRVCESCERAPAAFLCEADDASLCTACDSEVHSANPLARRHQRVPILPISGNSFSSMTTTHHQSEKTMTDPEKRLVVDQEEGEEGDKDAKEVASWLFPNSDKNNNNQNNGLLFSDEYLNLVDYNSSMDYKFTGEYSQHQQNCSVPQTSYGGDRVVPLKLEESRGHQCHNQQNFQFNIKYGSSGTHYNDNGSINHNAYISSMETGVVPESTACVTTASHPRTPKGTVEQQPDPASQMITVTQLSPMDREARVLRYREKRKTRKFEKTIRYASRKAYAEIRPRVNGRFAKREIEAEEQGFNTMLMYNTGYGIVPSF

T3: CO/NF-YC9 mixture (mCherry-CO with NF-YC9-GFP), immobilised together (Arabidopsis thaliana, UniProt Q39057 1-373; Q8L4B2 1-231)
T3 chain 1: T2 sequence (looked up)
T3 chain 2: T1 chain

B1: mCherry-CO (CONSTANS), recombinant (natural protein)
chain: T2 sequence (looked up)
B2: NF-YC9-GFP, recombinant (natural protein, Arabidopsis thaliana, UniProt Q8L4B2 1-231, looked up)
chain: T1 chain
notes: Nuclear Factor-Y subunit C9 (NF-YC9), Arabidopsis thaliana; No tag cleavage step is described; also called MBP-NF-YC9-GFP; source: E. coli Rosetta pLysS, purified (HisTrap; size exclusion when necessary); not shown: GFP, C-terminal, kept
B3: NF-YB2, recombinant (natural protein, Arabidopsis thaliana, UniProt Q9FGJ3 1-190, looked up)
chain: MGDSDRDSGGGQNGNNQNGQSSLSPREQDRFLPIANVSRIMKKALPANAKISKDAKETMQECVSEFISFVTGEASDKCQKEKRKTINGDDLLWAMTTLGFEDYVEPLKVYLQRFREIEGERTGLGRPQTGGEVGEHQRDAVGDGGGFYGGGGGMQYHQHHQFLHQQNHMYGATGGGSDSGGGAASGRTRT
notes: Nuclear Factor-Y subunit B2 (NF-YB2), Arabidopsis thaliana; Unlabelled form, as used in SPR; also called His-NF-YB2; source: E. coli Rosetta pLysS, purified (HisTrap; size exclusion when necessary)
B4: NF-YB2, recombinant, labelled with Alexa Fluor 647 (natural protein, Arabidopsis thaliana, UniProt Q9FGJ3 1-190, looked up)
chain: B3 chain
modifications: Alexa Fluor 647 label (site not stated)
notes: Nuclear Factor-Y subunit B2 (NF-YB2), Arabidopsis thaliana; Same construct as m3, with the dye, as used for TIRF single-particle imaging; also called NF-YB2 (labeled by Alexa fluor 647); NF-YB2 with Alex647; source: E. coli Rosetta pLysS, purified (HisTrap; size exclusion when necessary)

Legend:
[1] = target: the molecule itself; test: SPR; bivalent model, kd1
[2] = target: T1, NF-YC9-GFP, recombinant; test: SPR; bivalent model, kd1
[3] = target: the molecule itself; test: SPR; bivalent model
[4] = target: T1, NF-YC9-GFP, recombinant; test: SPR; bivalent model
[5] = target: T2, mCherry-CO (CONSTANS), recombinant; test: single-particle colocalisation by TIRF microscopy; 10 nM of each of two recombinant proteins mixed in 20 mM HEPES, 150 mM NaCl, pH 7.4 for 5 min, put on cover glass; details: both partners purified
[6] = target: the molecule itself; test: SPR; Biacore T200, 25 °C; CO, NF-YC9 or a CO/NF-YC9 mixture (4:1) amine-coupled to a CM5 chip (1000-2000 RU); analytes NF-YB2, CO, NF-YC9 in twofold dilutions; HBST (10 mM HEPES, 150 mM NaCl, 3 mM EDTA, 0.05% Tween 20, pH 7.4); bivalent analyte model
[7] = target: T3, CO/NF-YC9 mixture (mCherry-CO with …); test: SPR; bivalent model, kd1
[8] = target: B1; test: SPR; bivalent model, kd1
[9] = target: T3, CO/NF-YC9 mixture (mCherry-CO with …); test: SPR; bivalent model
[10] = target: B1; test: SPR; bivalent model
[11] = target: T2, mCherry-CO (CONSTANS), recombinant; test: SPR; Biacore T200, 25 °C; CO, NF-YC9 or a CO/NF-YC9 mixture (4:1) amine-coupled to a CM5 chip (1000-2000 RU); analytes NF-YB2, CO, NF-YC9 in twofold dilutions; HBST (10 mM HEPES, 150 mM NaCl, 3 mM EDTA, 0.05% Tween 20, pH 7.4); bivalent analyte model; details: both partners purified
[12] = target: B2; test: as above; details: both partners purified
[13] = target: B2; test: single-particle colocalisation by TIRF microscopy; 10 nM of each of two recombinant proteins mixed in 20 mM HEPES, 150 mM NaCl, pH 7.4 for 5 min, put on cover glass; details: both partners purified

Binder | koff [1] | koff [2] | Kd [3] | Kd [4] | binding result [5] | binding result [6] | koff [7] | koff [8] | Kd [9] | Kd [10] | binding result [11] | binding result [12] | binding result [13]
B1 | 0.0014 s⁻¹ | 0.00138 s⁻¹ | 53.8 nM | 53.6 nM | – | – | – | – | – | – | – | – | –
B2 | 0.0017 s⁻¹ | – | 27.8 nM | – | binds | binds | – | – | – | – | – | – | –
B3 | 0.00137 s⁻¹ | 0.00173 s⁻¹ | 23.7 nM | 41.6 nM | – | – | 0.00139 s⁻¹ | 0.00202 s⁻¹ | 40.6 nM | 100 nM | binds | binds | –
B4 | – | – | – | – | binds | – | – | – | – | – | – | – | binds
